For the assay, the target named is pag_bacan pagA (UniProt P13423).

For the substance “Lethal factor (Bacillus anthracis) (from UniProt P15917) D139A”, the “effect of a mutation on the interaction” value was “decreasing interaction”.
“Lethal factor (Bacillus anthracis) (from UniProt P15917) D169A”: the “effect of a mutation on the interaction” value is reported as “decreasing interaction”.
The entry for “Lethal factor (Bacillus anthracis) (from UniProt P15917) D169K” is “decreasing interaction”; for “Lethal factor (Bacillus anthracis) (from UniProt P15917) E168A” it is “decreasing interaction”; for “Lethal factor (Bacillus anthracis) (from UniProt P15917) E168K” it is “decreasing interaction”.
The entry for “Lethal factor (Bacillus anthracis) (from UniProt P15917) K176A” is “decreasing interaction”.
The entry for “Lethal factor (Bacillus anthracis) (from UniProt P15917) N173A” is “decreasing interaction”; for “Lethal factor (Bacillus anthracis) (from UniProt P15917) Y141K” it is “decreasing interaction”.
